Source: the RNAGym collection of RNA variant scans (doi:10.1093/molbev/msab373)

B1: Azoarcus group I ribozyme (parent)
chain: GUGCCUUGCGCCGGGAAACCACGCAAGGGAUGGUGUCAAAUUCGGCGAAACCUAAGCGCCCGCCCGGGCGUAUGGCAACGCCGAGCCAAGCUUCGGCGCCUGCGCCGAUGAAGGUGUAGAGACUAGACGGCACCCACCUAAGGCAAACGCUAUGGUGAAGGCAUAGUCCAGGGAGUGGCGAAAGUCACACAAACCGG

Variants of: B1
Test: reverse-splicing fitness (ratio to wild type); higher = more active; in vitro selection; Mg2+ level not given
Outline: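 An in vitro group I ribozyme library with randomized positions was T7-transcribed and gel-purified. In triplicate, 10 pmol RNA in EPPS pH 7.5 was reacted with 50 pmoles of a 30-nt RNA substrate for 1 h at 37 °C across several added MgCl2 levels (1–48 mM), then stopped with EDTA. Products were reverse transcribed from a substrate-complementary primer, PCR-amplified and sequenced (HiSeq 4000). Fitness is a variant's read proportion after selection over that before, normalised to wild type.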

| Variant | reverse-splicing fitness |
| --- | --- |
| GUGCCUUGCGCCGGGAAACCACGCAAGGGAUGGUGUCAAAUUCGGCGAAACCUAAGCGCCCGCCCGGGCGUAUGGCAACGCUGAGCCAAGCUUCGGCGCCUGCGCCGAUGGAGGUGUAGCGACUAGACGGCACCCACCUAAGGCAAACGGUAUGGUGAAGGCAUAGUCAAGGGAGCGGCGAAAGUCACACAAACCGG [C82U A111G A120C C150G C169A U176C] | 0.0113 |
| GUGCCUUGCGCCGGGAAACCACGCAAGGGAUGGUGUCAAAUUCGGCGAAACCUAAGCGCCCGCCCGGGCGUAUGGCAACGCUGAGCCAAGCUUCGGCGCCUGCGCCGAUGGAGGUGUAGCGACUAGACGGCACCCACCUAAGGCAAACGAUAUGGUGAAGGCAUAGUCCAGGGAGCGGCGAAAGUCACACAAACCGG [C82U A111G A120C C150A U176C] | 0.0187 |
| GUGCCUUGCGCCGGGAAACCACGCAAGGGAUGGUGUCAAAUUCGGCGAAACCUAAGCGCCCGCCCGGGCGUAUGGCAACGCUGAGCCAAGCUUCGGCGCCUGCGCCGAUGGAGGUGUAGCGACUAGACGGCACCCACCUAAGGCAAACGAUAUGGUGAAGGCAUAGUCCAGGGAGAGGCGAAAGUCACACAAACCGG [C82U A111G A120C C150A U176A] | 0.0127 |
| GUGCCUUGCGCCGGGAAACCACGCAAGGGAUGGUGUCAAAUUCGGCGAAACCUAAGCGCCCGCCCGGGCGUAUGGCAACGCUGAGCCAAGCUUCGGCGCCUGCGCCGAUGGAGGUGUAGCGACUAGACGGCACCCACCUAAGGCAAACGAUAUGGUGAAGGCAUAGUCCAGGGAGGGGCGAAAGUCACACAAACCGG [C82U A111G A120C C150A U176G] | 0.00554 |
| GUGCCUUGCGCCGGGAAACCACGCAAGGGAUGGUGUCAAAUUCGGCGAAACCUAAGCGCCCGCCCGGGCGUAUGGCAACGCUGAGCCAAGCUUCGGCGCCUGCGCCGAUGGAGGUGUAGCGACUAGACGGCACCCACCUAAGGCAAACGAUAUGGUGAAGGCAUAGUCAAGGGAGUGGCGAAAGUCACACAAACCGG [C82U A111G A120C C150A C169A] | 0.0107 |
| GUGCCUUGCGCCGGGAAACCACGCAAGGGAUGGUGUCAAAUUCGGCGAAACCUAAGCGCCCGCCCGGGCGUAUGGCAACGCUGAGCCAAGCUUCGGCGCCUGCGCCGAUGGAGGUGUAGCGACUAGACGGCACCCACCUAAGGCAAACGAUAUGGUGAAGGCAUAGUCGAGGGAGUGGCGAAAGUCACACAAACCGG [C82U A111G A120C C150A C169G] | 0.0102 |
| GUGCCUUGCGCCGGGAAACCACGCAAGGGAUGGUGUCAAAUUCGGCGAAACCUAAGCGCCCGCCCGGGCGUAUGGCAACGCUGAGCCAAGCUUCGGCGCCUGCGCCGAUGGAGGUGUAGCGACUAGACGGCACCCACCUAAGGCAAACGAUAUGGUGAAGGCAUAGUCUAGGGAGUGGCGAAAGUCACACAAACCGG [C82U A111G A120C C150A C169U] | 0.0114 |
| GUGCCUUGCGCCGGGAAACCACGCAAGGGAUGGUGUCAAAUUCGGCGAAACCUAAGCGCCCGCCCGGGCGUAUGGCAACGCUGAGCCAAGCUUCGGCGCCUGCGCCGAUGGAGGUGUAGCGACUAGACGGCACCCACCUAAGGCAAACGAUAUGGUGAAGGCAUAGUCGAGGGAGCGGCGAAAGUCACACAAACCGG [C82U A111G A120C C150A C169G U176C] | 0.0191 |
| GUGCCUUGCGCCGGGAAACCACGCAAGGGAUGGUGUCAAAUUCGGCGAAACCUAAGCGCCCGCCCGGGCGUAUGGCAACGCUGAGCCAAGCUUCGGCGCCUGCGCCGAUGGAGGUGUAGCGACUAGACGGCACCCACCUAAGGCAAACGAUAUGGUGAAGGCAUAGUCGAGGGAGGGGCGAAAGUCACACAAACCGG [C82U A111G A120C C150A C169G U176G] | 0.00458 |
| GUGCCUUGCGCCGGGAAACCACGCAAGGGAUGGUGUCAAAUUCGGCGAAACCUAAGCGCCCGCCCGGGCGUAUGGCAACGCUGAGCCAAGCUUCGGCGCCUGCGCCGAUGGAGGUGUAGCGACUAGACGGCACCCACCUAAGGCAAACGAUAUGGUGAAGGCAUAGUCGAGGGAGAGGCGAAAGUCACACAAACCGG [C82U A111G A120C C150A C169G U176A] | 0.0237 |
| GUGCCUUGCGCCGGGAAACCACGCAAGGGAUGGUGUCAAAUUCGGCGAAACCUAAGCGCCCGCCCGGGCGUAUGGCAACGCUGAGCCAAGCUUCGGCGCCUGCGCCGAUGGAGGUGUAGCGACUAGACGGCACCCACCUAAGGCUAACGCUAUGGUGAAGGCAUAGUCUAGGGAGUGGCGAAAGUCACACAAACCGG [C82U A111G A120C A145U C169U] | 0.0104 |
| GUGCCUUGCGCCGGGAAACCACGCAAGGGAUGGUGUCAAAUUCGGCGAAACCUAAGCGCCCGCCCGGGCGUAUGGCAACGCUGAGCCAAGCUUCGGCGCCUGCGCCGAUGGAGGUGUAGCGACUAGACGGCACCCACCUAAGGCAAACGAUAUGGUGAAGGCAUAGUCCAGGGAGUGGCGAAAGUCACACAAACCGG [C82U A111G A120C C150A] | 0.0113 |
| GUGCCUUGCGCCGGGAAACCACGCAAGGGAUGGUGUCAAAUUCGGCGAAACCUAAGCGCCCGCCCGGGCGUAUGGCAACGCUGAGCCAAGCUUCGGCGCCUGCGCCGAUGGAGGUGUAGCGACUAGACGGCACCCACCUAAGGCAAACGGUAUGGUGAAGGCAUAGUCCAGGGAGUGGCGAAAGUCACACAAACCGG [C82U A111G A120C C150G] | 0.00825 |
| GUGCCUUGCGCCGGGAAACCACGCAAGGGAUGGUGUCAAAUUCGGCGAAACCUAAGCGCCCGCCCGGGCGUAUGGCAACGCUGAGCCAAGCUUCGGCGCCUGCGCCGAUGGAGGUGUAGCGACUAGACGGCACCCACCUAAGGCUAACGCUAUGGUGAAGGCAUAGUCGAGGGAGCGGCGAAAGUCACACAAACCGG [C82U A111G A120C A145U C169G U176C] | 0.00823 |
| GUGCCUUGCGCCGGGAAACCACGCAAGGGAUGGUGUCAAAUUCGGCGAAACCUAAGCGCCCGCCCGGGCGUAUGGCAACGCUGAGCCAAGCUUCGGCGCCUGCGCCGAUGGAGGUGUAGCGACUAGACGGCACCCACCUAAGGCUAACGCUAUGGUGAAGGCAUAGUCGAGGGAGGGGCGAAAGUCACACAAACCGG [C82U A111G A120C A145U C169G U176G] | 0.00375 |
